Our source for the stoichiometry N values is paper PMC117134.

For this assay, the target named is HIV-1 reverse transcriptase p66 subunit, wild type (HIV-1). Nature of the assay: glycerol gradient ultracentrifugation.

Broadly, the stoichiometry N is a count of units in the complex or per binding partner. “HIV-1 reverse transcriptase p66 subunit, wild type (enzyme)” had a stoichiometry N of 2.
